Measurements taken from the MegaScale stability set (Tsuboyama et al. 2023).

B1: 5KPH (parent)
chain: EEKRQVKQVAKEKLLEQSPNSKVQVRRVQKQGNTIRVELELRTNGKKENYTVEVERQGNTWTVKRITRT
B2: EEHEE_rd3_1049 (parent)
chain: TTVKLGDIKVTFDNPEKAKKYAQKLAKIYQLTVHVHGDTIHVK

Variants of: B1
Assay: folding stability dG (cDNA display proteolysis); higher = more stable
Settings: PBS, room temperature

Folding stability dG [kcal/mol] of substitutions, site by site:
T67: N 3.32 | R 3.73 | V 3.96 | M 3.98 | E 3.64 | Y 4.38 | C 3.68 | I 4.09 | L 4.01 | A 3.46 | S 3.68 | K 3.55 | W 4.45 | F 4.23 | D 3.3 | Q 3.54 | H 3.62 | P 1.34 | G 3.01
T69: L 3.98 | Y 4 | N 3.87 | M 4.13 | F 3.52 | W 4.08 | H 4.21 | V 3.86 | P 2.87 | A 3.68 | E 3.82 | I 3.99 | S 3.75 | G 3.7 | D 3.73 | C 3.56 | K 3.73 | R 3.89 | Q 3.9
R65: V 3.54 | Q 3.84 | W 3.63 | K 4.01 | S 4.29 | I 3.43 | M 3.84 | H 3.58 | N 3.73 | P 1.4 | L 3.67 | Y 3.7 | T 4.05
R68: Y 3.32 | P 3.54 | T 3 | W 3.07 | E 3.13 | F 3.53 | G 2.87 | S 3.21 | H 3.59 | M 3.95 | K 3.99 | V 3.46 | C 3.34 | A 3.4 | I 3.67 | N 3.89 | L 4.21 | D 2.65 | Q 3.73
I66: Y 2.85 | V 3.94 | L 3.25 | M 3.38 | G 0.993 | W 3.15 | C 2.88 | Q 1.95 | P 1.72 | N 1.2 | H 1.67 | E 1.1 | R 1.28 | F 3.04 | S 2.1 | K 1.54 | D 0.142 | A 2.2

Variants of: B2
Assay: as above
Settings: PBS, room temperature

Folding stability dG [kcal/mol] of substitutions, site by site:
V3: M 0.732 | G 0.742 | P 0.746 | Q 0.609 | C 2.3 | N 0.593 | D 0.577 | W 0.663 | A 0.626 | L 1.09 | Y 0.622 | R 0.673 | H 0.671 | T 0.665 | F 0.742 | K 0.686 | I 1.34 | S 0.71 | E 0.57
T2: K 1.26 | G 0.901 | H 1.82 | S 1.4 | Y 1.72 | V 2.12 | I 2.23 | R 1.03 | M 1.65 | W 1.6 | E 1.06 | P 0.739 | C 2.33 | D 1.01 | F 1.67 | N 1.17 | Q 1.28 | L 1.51 | A 1.22
L5: A 0.939 | D 0.531 | C 3.38
K4: D 1.09 | L 2.47 | V 2.91 | Q 2.35 | T 1.85 | M 2.47 | H 2.07 | P 0.652 | E 1.6 | G 0.845 | A 1.71 | C 3.22 | W 2.76 | I 3.17 | F 2.4 | Y 2.5 | S 1.61 | R 2.18 | N 1.34
T1: L 1.76 | D 0.651 | Q 1.06 | A 1.43 | V 2.14 | F 2.42 | M 2.14 | P 1.02 | K 1.19 | H 1.56 | R 1.28 | Y 2.52 | N 1.1 | I 2.27 | W 2.77 | C 3.02 | S 1.23 | E 0.641 | G 0.959
